Measured values as given in patent US20200237885A1, “VACCINES FOR TREATMENT AND PREVENTION OF CANCER” (Agenus Inc., priority 2015, published 2020).
Where no end group is shown, it is not given here. [ ]: non-standard residue; d: D form. pS = N[C@@H](COP(=O)(O)O)C(=O)O

What was measured:
recombinant human Hsc70 [1] = target: T1, recombinant human Hsc70 (Homo sapiens, UniProt P11142); assay: Hsc70-peptide complex formation by size exclusion chromatography (SEC); format: binding; settings: for Percentage of Hsc70 loaded with peptide: peptide:Hsc70 4:1 molar excess, PBS 37° C. 1 hour
T1 construct: purchased Biomay AG
Excerpt: Hsc70-peptide complex formation was examined in vitro using size exclusion chromatography (SEC). Hsc70 resolves in two main peaks on a size exclusion column, with one peak corresponding to its monomeric form and the other peak to an oligomeric form (FIG. 14). Hsc70 undergoes a conformational change upon binding peptide (Zhuravleva and Gierasch, P.N.A.S. 112[22]:E2865-73 [2015]), resulting in the appearance of a new peak on the SEC chromatogram that corresponds to the peptide-bound form (FIG. 15). By measuring the surface area of each of the peaks corresponding to the forms of Hsc70 on a chromatogram, the percentage of Hsc70 complexed with a peptide can be determined. The effect of the molar ratio of Hsc70 to peptide on Hsc70-peptide complex formation was determined by combining Hsc70 and a test peptide at Hsc70/peptide molar ratios of 1:4, 1:10, 1:20, and 1:50, and then resolving the resulting mixtures by SEC to determine the extent of complex formation. The peptide used in these experiments was the immunogenic peptide B16-M27 (“M27”), containing a B16-F10 melanoma-specific mutation, as described in Kreiter et al., Nature 520(7549):692-6 (2015) (also described in Examples 9-11). The effect on complex formation of appending a high affinity Hsc70-binding peptide sequence to a chicken ovalbumin peptide having the amino acid sequence SIINFEKL (SEQ ID NO:448), that is highly immunogenic in mice (Zehn et al, Nature 458:211-214 [12 Mar., 2009]) was also tested. The high affinity Hsc70 binding sequence, NLLRLTG (SEQ ID NO:439) was appended to either the C- or N-terminus of the ovalbumin peptide, and was linked to the ovalbumin peptide by a linker having the sequence FFRK (SEQ ID NO:447), as disclosed in U.S. Pat. No. 7,309,491.
Standard size exclusion chromatography was carried out using 7 μM of recombinant human Hsc70 (Genbank Accession No. P11142.1) (Biomay AG) in a reaction buffer containing 20 mM HEPES and 200 mM KCL in a final volume of 50 μl. Reactions were incubated at 37° C. for 1 or 2 hours and centrifuged 2 min at 13000 RPM. Reaction products (10 μg) were resolved on a TSKgel SuperSW3000, 4 μm particle size, 25 nm pore size gel filtration chromatography column (Tosoh Bioscience). For reactions containing peptide, peptide was included in the reaction mixtures at Hsc70:peptide molar ratios of 1:4, 1:10, 1:20, and 1:50. The percentage of Hsc70 complexed with peptide in each reaction mixture was calculated by measuring the surface area of the appropriate peak.
The peptides listed above were individually incubated with Hsc70 in PBS at 37° C. for 1 hour to form non-covalent Hsc70-peptide complexes. For M27 and M30, the peptides were added to Hsc70 at a 20:1 molar excess (peptide:Hsc70) while for M27-Jav and M30-Jav, the peptides were added at a 4:1 molar excess. After incubation, the mixtures were diluted 10 times in PBS at 4° C. and concentrated using a 30 kDa MW cut off Millipore® Amicon® centrifugal filter to separate Hsc70-peptide complexes from free, uncomplexed peptide. The retained complexes 5 Hsc70-M27 and Hsc70-M30 were pooled and subsequently analyzed by size exclusion chromatography (SEC) to quantify the proportion of Hsc70 molecules loaded with peptide. […] The same pooling, filtration and SEC analysis steps were followed for the Hsc70-M27-Jay and Hsc70-M30-Jav complexes with the observation that 73% of the Hsc70 molecules were loaded with the peptides.
Four peptides (Table 9) containing a phosphorylated serine residue were synthesized to 95% purity (GenScript, Cambridge, Mass.). The peptides comprise HLA-A*02:01 binding epitopes of the CDC25 or IRS-2 antigen modified at either their C-termini or N-termini with the addition of a linker sequence FFRK (SEQ ID NO:447) and a high affinity HSP binding peptide sequence NLLRLTG (SEQ ID NO: 439). These peptides were individually incubated with Hsc70 in PBS at 37° C. for 1 hour at a 4:1 molar excess (peptide:Hsc70) to form non-covalent Hsc70-peptide complexes. […]

recombinant human Hsc70 [2] = target: T1, recombinant human Hsc70; assay: as above; format: binding
[3] = Hsc70:peptide molar ratio 1:10, 37° C.

T1 sequence (P11142 whole entry): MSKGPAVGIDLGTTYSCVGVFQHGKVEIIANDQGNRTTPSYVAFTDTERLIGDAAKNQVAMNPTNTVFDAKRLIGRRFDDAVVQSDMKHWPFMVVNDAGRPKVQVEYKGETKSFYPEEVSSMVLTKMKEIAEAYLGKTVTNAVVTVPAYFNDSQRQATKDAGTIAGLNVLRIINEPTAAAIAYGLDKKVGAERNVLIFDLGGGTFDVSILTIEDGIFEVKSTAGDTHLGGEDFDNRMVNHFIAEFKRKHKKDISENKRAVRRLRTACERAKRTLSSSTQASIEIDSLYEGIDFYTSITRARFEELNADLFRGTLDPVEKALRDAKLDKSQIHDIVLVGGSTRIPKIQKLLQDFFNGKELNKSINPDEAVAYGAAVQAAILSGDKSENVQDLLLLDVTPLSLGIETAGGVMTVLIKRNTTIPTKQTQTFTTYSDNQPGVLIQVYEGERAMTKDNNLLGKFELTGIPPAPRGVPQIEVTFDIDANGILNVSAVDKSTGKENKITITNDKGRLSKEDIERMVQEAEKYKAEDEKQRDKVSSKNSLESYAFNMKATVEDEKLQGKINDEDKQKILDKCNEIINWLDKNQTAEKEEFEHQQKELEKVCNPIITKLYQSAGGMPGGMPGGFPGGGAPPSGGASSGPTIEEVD

Row | Substance | Percentage of Hsc70 loaded with peptide (recombinant human Hsc70 [1]) | percentage of Hsc70 complexed with peptide (recombinant human Hsc70 [1]; [3]) | further results
1 | GLLG{pSer}PVRAFFRKNLLRLTG (GLLG[pS]PVRAFFRKNLLRLTG) [SEQ ID NO 474] | 74% | – | –
2 | NLLRLTGFFRKGLLG{pSer}PVRA (NLLRLTGFFRKGLLG[pS]PVRA) [SEQ ID NO 473] | 41% | – | –
3 | NLLRLTGFFRKRVA{pSer}PTSGV (NLLRLTGFFRKRVA[pS]PTSGV) [SEQ ID NO 475] | 34% | – | –
4 | REGVELCPGNKYEMRRHGTTHSLVIHD (M27) | – | approximately 40% | percentage of Hsc70 bound to peptide (recombinant human Hsc70 [1]; Hsc70:peptide molar ratio 1:4, 37° C.): 20%; percentage of Hsc70 complexed with peptide (recombinant human Hsc70 [1]; Hsc70:peptide molar ratio 1:20, 37° C.): approximately 50%; percentage of Hsc70 complexed with peptide (recombinant human Hsc70 [1]; Hsc70:peptide molar ratio 1:50, 37° C.): approximately 65%; change in extent of complex formation with incubation time (recombinant human Hsc70 [2]; incubation time increased from 2 to 3 hours at 37° C.): only a minor increase
5 | RVA{pSer}PTSGVFFRKNLLRLTG (RVA[pS]PTSGVFFRKNLLRLTG) [SEQ ID NO 476] | 75% | – | –
6 | SIINFEKLFFRKNLLRLTG [SEQ ID NO:449, reference compound] | – | over 90% | extent of complex formation, NLLRLTG at C-terminus compared to N-terminus (recombinant human Hsc70 [2]; Hsc70:peptide molar ratio 1:2, same result at 1:5): significantly greater
